From patent US20050287607A1
No end group written: not given here. *: point of attachment. Biotin = O=C1N[C@H]2[C@H](CS[C@H]2CCCCC(=O)*)N1

Experiments:
Test in all cases: flow cytometry, R4A-tetramer staining of splenocytes
[1] = target: peptide-reactive B cells (surface immunoglobulin) in splenocytes of BALB/c mice immunized with MAP-peptide (R4A peptide on a branched polylysine backbone) (mouse)
[2] = target: splenocytes of BALB/c mice immunized with MAP-core (mouse)
[3] = target: splenocytes of BALB/c mice immunized with adjuvant alone (mouse)

Question: Which frequency of cells staining (percent of gated cells) (% of gated cells) [1] does the source give for Biotin-DWEYSLWLSN (peptide, part only; not given: labeled streptavidin, not shown: large carriers, also: tetramer with fluorochrome-labeled streptavidin/neutravidin) [R4A-tetramer (tetrameric fluorochrome-labeled form of the R4A peptide)] here?
Answer: The frequency of cells staining (percent of gated cells) (% of gated cells) was 1.

Question: What about the frequency of tetramer-binding cells (percent of the gated population) (% of the gated population) [2] of the same binder?
Answer: The frequency of tetramer-binding cells (percent of the gated population) (% of the gated population) was under 0.05.

Question: What about the frequency of tetramer-binding cells (percent of the gated population) (% of the gated population) [3] of the same binder?
Answer: Its frequency of tetramer-binding cells (percent of the gated population) (% of the gated population) is under 0.05.
